Patent US8920805B2, “Inhibition of tumor metastasis by anti-neuropilin 2 antibodies” (Genentech, Inc., priority 2007, dated 2014)

System: E 17.5 Hippocampal growth cones
Assay: Hippocampal neuronal growth cone collapse assay (Sema3F)
Type: cell-based
Conditions: Anti-Nrp2^B 50 μg/ml; Nrp2 ECD 10 ug/ml
Procedure: FIG. 17. […] (A) Images of E 17.5 Hippocampal growth cones stained with rhodamine conjugated phalloidin. Control growth cones show large actin rich structures at the tip of each axon, which are reduced with Sema3F treatment. […] In contrast, Nrp2 ECD (10 ug/ml) does block this collapse. (B) Quality control for anti-Nrp2 immunohistochemistry. […] This antibody was subsequently used for IHC on fresh frozen tumor sections. (Scale bar main images=**μm and for inset images=**μm.
Then, the ability of Anti-Nrp2^B to modulate semaphorin function was tested. […] Thus, Anti-Nrp2^B acts to block specific aspects of Nrp2 function, inhibiting VEGFC but not VEGF or Sema3F mediated cellular responses.

B1: Nrp2 ECD: Nrp2 extracellular domain protein, positive control for blocking Sema3F (protein, UniProt O60462 21-864, looked up)
extracellular domain: RGQPDPPCGGRLNSKDAGYITSPGYPQDYPSHQNCEWIVYAPEPNQKIVLNFNPHFEIEKHDCKYDFIEIRDGDSESADLLGKHCGNIAPPTIISSGSMLYIKFTSDYARQGAGFSLRYEIFKTGSEDCSKNFTSPNGTIESPGFPEKYPHNLDCTFTILAKPKMEIILQFLIFDLEHDPLQVGEGDCKYDWLDIWDGIPHVGPLIGKYCGTKTPSELRSSTGILSLTFHTDMAVAKDGFSARYYLVHQEPLENFQCNVPLGMESGRIANEQISASSTYSDGRWTPQQSRLHGDDNGWTPNLDSNKEYLQVDLRFLTMLTAIATQGAISRETQNGYYVKSYKLEVSTNGEDWMVYRHGKNHKVFQANNDATEVVLNKLHAPLLTRFVRIRPQTWHSGIALRLELFGCRVTDAPCSNMLGMLSGLIADSQISASSTQEYLWSPSAARLVSSRSGWFPRIPQAQPGEEWLQVDLGTPKTVKGVIIQGARGGDSITAVEARAFVRKFKVSYSLNGKDWEYIQDPRTQQPKLFEGNMHYDTPDIRRFDPIPAQYVRVYPERWSPAGIGMRLEVLGCDWTDSKPTVETLGPTVKSEETTTPYPTEEEATECGENCSFEDDKDLQLPSGFNCNFDFLEEPCGWMYDHAKWLRTTWASSSSPNDRTFPDDRNFLRLQSDSQREGQYARLISPPVHLPRSPVCMEFQYQATGGRGVALQVVREASQESKLLWVIREDQGGEWKHGRIILPSYDMEYQIVFEGVIGKGRSGEIAIDDIRISTDVPLENCMEPISAFAGENFKVDIPEIHEREGYEDEIDDEYEVDWSNSSSATSGSGAPSTDKEKSWLYTLDP
modifications: extracellular domain
semaphorin (Sema3F) induced growth cone collapse: inhibited this collapse completely
